Data from the supplement of paper PMC6757056.
± gives the standard deviation of the averaged measurements.

B1: library; a variant is named by its letters at N, in order (parent)
chain: GCUGUCACCGGUGUAUUACCCUAGUGGUCGACCGGUCUGAUGAGUCUNNNNNNAGACGAAACAGC

How the values were obtained:
hypoxanthine [1] = variants of: B1; assay: normalized RNA/DNA level with ligand (relative to sTRSVctl = 100) (log10 (% of sTRSVctl)); ligand: hypoxanthine (xanthine aptamer); higher = less ribozyme self-cleavage, higher mRNA level; details: ligand concentration (+) RNA-Seq: 5 mM, HEK293T, reporter: mCherry (pCS4076), ligand present: yes
How it was run: (§1)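 Ribozyme switch library plasmids linked to reporters were introduced into HEK293T cells at 4 µg per 6-well well, with ligand, if any, added 1 h before. Total RNA was extracted with EDTA 72 h later, reverse-transcribed, amplified, barcoded and sequenced. RNA level was computed from RNA over DNA reads relative to a spiked-in non-cleaving sequence or the top sequences, then scaled and log-transformed. The top set was 25 sequences, values were ×100 and log10, and the cutoff was ≥100 DNA reads.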

hypoxanthine [2] = variants of: B1; assay: normalized RNA/DNA level without ligand (relative to sTRSVctl = 100) (log10 (% of sTRSVctl)); ligand: hypoxanthine (xanthine aptamer); higher = less ribozyme self-cleavage, higher mRNA level; details: HEK293T, reporter: mCherry (pCS4076), ligand present: no
How it was run: as §1

Variant | normalized RNA/DNA level with ligand (log10) (hypoxanthine [1]) | normalized RNA/DNA level without ligand (log10) (hypoxanthine [2])
GCCGAC | 1.891 ± 0.0051 | 1.55 ± 0.032
UCCGAC | 1.95 ± 0.022 | 1.796 ± 0.016
ACCGAC | 1.967 ± 0.0065 | 1.825 ± 0.017
CCCGAG | 1.89 ± 0.035 | 1.65 ± 0.022
ACCGAG | 1.76 ± 0.057 | 1.301 ± 0.0053
CCCGAU | 1.97 ± 0.033 | 1.8 ± 0.029
UCCGAU | 1.965 ± 0.013 | 1.774 ± 0.0086
UCCGCA | 1.9294 ± 0.00025 | 1.807 ± 0.014
ACCGCA | 1.93 ± 0.082 | 1.845 ± 0.017
GCCGCC | 1.99 ± 0.068 | 1.81 ± 0.1
UCCGCC | 1.992 ± 0.013 | 1.773 ± 0.015
CCCGCG | 1.9 ± 0.029 | 1.84 ± 0.019
CCCGCU | 1.94 ± 0.056 | 1.99 ± 0.03
GCCGCU | 1.98 ± 0.05 | 1.95 ± 0.046
UCCGCU | 1.94 ± 0.055 | 1.944 ± 0.0031
ACCGCU | 1.925 ± 0.0096 | 1.89 ± 0.041
GCCGGA | 1.95 ± 0.043 | 1.93 ± 0.065
ACCGGA | 1.94 ± 0.039 | 1.903 ± 0.014
CCCGGC | 2 ± 0.041 | 1.859 ± 0.0099
GCCGGC | 1.96 ± 0.066 | 1.762 ± 0.015

Variant | normalized RNA/DNA level with ligand (log10) (hypoxanthine [1]) | normalized RNA/DNA level without ligand (log10) (hypoxanthine [2])
UCCGGC | 2.019 ± 0.0041 | 1.85 ± 0.056
ACCGGC | 2.001 ± 0.012 | 1.96 ± 0.073
GCCGGG | 1.94 ± 0.023 | 1.87 ± 0.06
CCCGGU | 2 ± 0.069 | 1.92 ± 0.071
UCCGGU | 1.98 ± 0.037 | 1.83 ± 0.054
ACCGGU | 1.99 ± 0.076 | 1.844 ± 0.0038
CCCGUA | 1.92 ± 0.015 | 1.85 ± 0.035
GCCGUA | 1.965 ± 0.011 | 1.84 ± 0.061
UCCGUA | 1.956 ± 0.0079 | 1.7408 ± 0.0014
CCCGUC | 2.027 ± 0.018 | 2.021 ± 0.019
GCCGUC | 1.94 ± 0.096 | 1.91 ± 0.074
UCCGUC | 1.97 ± 0.059 | 2.03 ± 0.042
ACCGUC | 1.982 ± 0.0058 | 2 ± 0.026
CCCGUG | 1.97 ± 0.026 | 1.812 ± 0.0064
GCCGUG | 1.91 ± 0.025 | 1.48 ± 0.036
ACCGUG | 1.8625 ± 0.00016 | 1.45 ± 0.051
CCCGUU | 1.93 ± 0.056 | 1.9 ± 0.024
ACCGUU | 1.91 ± 0.06 | 1.835 ± 0.011
UCCUAA | 1.956 ± 0.019 | 1.807 ± 0.017
ACCUAA | 1.942 ± 0.012 | 1.87 ± 0.028

Variant | normalized RNA/DNA level with ligand (log10) (hypoxanthine [1]) | normalized RNA/DNA level without ligand (log10) (hypoxanthine [2])
CCCUAC | 1.973 ± 0.018 | 1.9 ± 0.11
GCCUAC | 1.954 ± 0.0075 | 1.757 ± 0.0057
CCCUAG | 1.89 ± 0.025 | 1.77 ± 0.12
UCCUAG | 1.91 ± 0.066 | 1.65 ± 0.038
CCCUAU | 1.971 ± 0.0087 | 1.94 ± 0.025
GCCUAU | 1.944 ± 0.013 | 1.852 ± 0.011
UCCUAU | 1.957 ± 0.0089 | 1.851 ± 0.0031
ACCUAU | 1.908 ± 0.015 | 1.792 ± 0.0054
CCCUCA | 1.978 ± 0.0074 | 1.9723 ± 0.00098
GCCUCA | 1.98 ± 0.07 | 1.9 ± 0.024
UCCUCA | 2 ± 0.033 | 1.88 ± 0.048
ACCUCA | 1.904 ± 0.0082 | 1.89 ± 0.027
CCCUCC | 1.95 ± 0.065 | 2 ± 0.08
GCCUCC | 1.95 ± 0.043 | 1.95 ± 0.023
UCCUCC | 1.99 ± 0.055 | 1.78 ± 0.039
ACCUCC | 1.99 ± 0.03 | 1.919 ± 0.018
CCCUCG | 1.93 ± 0.087 | 1.8103 ± 0.0013
UCCUCG | 1.97 ± 0.065 | 1.68 ± 0.058
